A value given as a limit tells only on which side of the number the result lay.

The target in experiment [1] is T1, human originated HIgG1.
T1 construct: also called human IgG1 (anti CRP) antibody
The experiment in a line: SPR (Biacore 3000), hybrid of 1a on a CM-5 chip, antibody at 100 to 1000 nM, nonlinear regression with BIAevaluation. The procedure: (§1) The antibody solutions containing HIgG1, rabbit IgG, MIgG3 antibodies at the concentrations of 100 nM, 250 nM, 500 nM and 1,000 nM were spilled on the chip surface-treated with the hybrid of 1a of Example <3-1> at the speed of 10 μl/minute to induce the binding reaction and the degree of binding was measured by surface plasmon resonance (SPR) using Biacore 3000.
(§2) As a result, SPR sensor gram values represented in dotted line were obtained. The values were analyzed by nonlinear regression using BIAevaluation software equipped in Biacore 3000 to draw a theoretical line graph (FIG. 4a). From the theoretical graph, kinetic coefficients shown in FIG. 4b were obtained and the overlapping of each dotted line on the line indicates the calculation was correct.
(In SPR one partner is held on a chip, and binding of the other changes the refractive index at the surface.)

Experiment [2] addresses T2, rabbit originated IgG.
T2 construct: also called rabbit IgG; rabbit originated antibodies
Described as above. As to the method: as §1, §2

In experiment [3] the target is T1, human originated HIgG1. The experiment can be described thus: SPR (Biacore 3000), hybrid of 1a on CM-5 chip, antibody at 100-1,000 nM, nonlinear regression with BIAevaluation. As to the method:
as §1, §2

In experiment [4] the target is T2, rabbit originated IgG. The experiment is described as above. The procedure:
as §1, §2

The target in experiment [5] is mouse originated antibody MIgG3. The experiment can be described thus: SPR (Biacore 3000), hybrid of 1a on a CM-5 chip, antibody at 100 to 1000 nM, nonlinear regression with BIAevaluation; Kon and Koff printed as NA. The procedure: as §1, §2
Experiment [6] concerns the target T3, BSA (UniProt P02769 25-607).
T3 construct: Control protein; also called BSA (control)
The experiment can be described thus: SPR (Biacore 3000), peptide hybrid coupled to a dextran CM-5 Au chip; legend: chip of formula 1, paragraph 80: hybrid of 1a. As to the method: Antibody solutions containing different animal originated antibodies of Example 2 or 5 μg/ml of BSA (control) in PBS were spilled on the chip of Example <3-1> at the speed of 10 μl/minute to bind the antibody to the peptide hybrid on the surface of the chip. The binding capacity was measured by surface plasmon resonance (SPR) using Biacore 3000.

T3 sequence (P02769 25-607 limits assumed): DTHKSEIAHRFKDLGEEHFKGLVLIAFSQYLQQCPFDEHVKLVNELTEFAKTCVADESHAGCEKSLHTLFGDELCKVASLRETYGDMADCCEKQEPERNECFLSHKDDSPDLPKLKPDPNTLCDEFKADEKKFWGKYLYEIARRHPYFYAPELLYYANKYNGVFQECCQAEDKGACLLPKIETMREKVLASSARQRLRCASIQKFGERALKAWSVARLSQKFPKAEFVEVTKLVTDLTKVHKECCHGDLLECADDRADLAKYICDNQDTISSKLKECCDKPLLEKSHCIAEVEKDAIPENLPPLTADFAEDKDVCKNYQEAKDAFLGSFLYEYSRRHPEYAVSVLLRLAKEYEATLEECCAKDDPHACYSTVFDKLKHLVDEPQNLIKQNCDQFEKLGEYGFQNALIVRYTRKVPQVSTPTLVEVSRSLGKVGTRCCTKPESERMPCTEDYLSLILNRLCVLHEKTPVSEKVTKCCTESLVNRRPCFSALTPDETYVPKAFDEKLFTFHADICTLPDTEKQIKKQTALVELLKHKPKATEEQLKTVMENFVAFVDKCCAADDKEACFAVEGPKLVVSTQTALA

B1: peptide hybrid for protein immobilization represented by formula 1a (H2N(CH2CH2O)2CH2CH2CO-EDDC*AWHLGELVWC*T-CONH2) (peptide)
peptide: EDDCAWHLGELVWCT
modifications: N-terminal H2N(CH2CH2O)2CH2CH2CO- (PEG linker); C-terminal amide (CONH2); disulfide bond between the two Cys (C*)
notes: Synthetic peptide-PEG hybrid; In the assays it was coupled through its terminal amine to a CM-5 chip, magnetic micro beads or a glass plate; also called hybrid of 1a; peptide hybrid of 1a
Broadly, the koff is the rate constant with which the complex falls apart. In general, kon refers to the rate constant with which the complex forms. A higher kon goes with faster complex formation. The term Kd denotes a measure of binding affinity in units of concentration. A high value points to weaker binding. Consider B1, for which the koff was determined as 0.02 s⁻¹ in experiment [1] and 0.043 s⁻¹ in experiment [2]. For the same molecule, the kon in experiment [1] came to 230000 M⁻¹ s⁻¹; in experiment [2], 140000 M⁻¹ s⁻¹. The figures for the Kd in experiment [3], in experiment [4] and in experiment [5] were 85 nM, 305 nM and above 20 µM, respectively. Besides, the binding result in experiment [6] is reported as “no binding”.

For the origin of these results see patent publication US20100209945A1 (KOREA RESEARCH INSTITUTE OF BIOSCIENCE AND BIOTECHNOLOGY, published 2010).
